Data reported in patent US20100092457A1 (Chugai, published 2010).

T1: full-length human DSG3 (Desmoglein 3) protein (human, UniProt P32926 50-999)
T1 construct: Full-length protein constantly expressed on transfected cells (DSG3-CHO, DSG3-A549, DSG3-Ba/F3); no signal peptide limits are stated; also called hDSG3; PV antigen
T1 sequence: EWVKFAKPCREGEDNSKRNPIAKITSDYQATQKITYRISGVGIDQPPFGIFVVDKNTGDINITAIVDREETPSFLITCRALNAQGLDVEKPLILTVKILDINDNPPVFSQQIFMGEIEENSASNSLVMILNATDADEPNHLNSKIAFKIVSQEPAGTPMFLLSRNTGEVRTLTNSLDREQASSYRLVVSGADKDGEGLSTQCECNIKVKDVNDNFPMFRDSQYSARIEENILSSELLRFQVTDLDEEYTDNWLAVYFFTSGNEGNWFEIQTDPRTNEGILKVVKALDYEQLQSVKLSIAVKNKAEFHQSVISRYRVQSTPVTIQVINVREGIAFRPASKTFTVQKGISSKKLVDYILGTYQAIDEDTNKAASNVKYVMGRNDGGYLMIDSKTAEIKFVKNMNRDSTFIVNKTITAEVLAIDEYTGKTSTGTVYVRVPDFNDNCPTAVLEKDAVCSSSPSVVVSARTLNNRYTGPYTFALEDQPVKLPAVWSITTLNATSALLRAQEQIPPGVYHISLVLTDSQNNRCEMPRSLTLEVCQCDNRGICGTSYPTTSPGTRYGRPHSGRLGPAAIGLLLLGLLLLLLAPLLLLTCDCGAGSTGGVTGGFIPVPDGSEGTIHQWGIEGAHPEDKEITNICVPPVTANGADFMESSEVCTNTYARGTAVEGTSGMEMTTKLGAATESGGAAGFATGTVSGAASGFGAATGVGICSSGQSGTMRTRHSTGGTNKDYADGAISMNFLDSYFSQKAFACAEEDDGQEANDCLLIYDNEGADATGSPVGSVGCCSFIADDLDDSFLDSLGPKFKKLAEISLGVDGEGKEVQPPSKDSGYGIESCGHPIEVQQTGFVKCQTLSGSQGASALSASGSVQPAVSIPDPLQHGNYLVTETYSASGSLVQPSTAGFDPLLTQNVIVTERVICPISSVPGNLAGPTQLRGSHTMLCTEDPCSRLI


The binders below were run against T1, full-length human DSG3 (Desmoglein 3) … (assay: hybridoma screening by flow cytometry on CHO cells expressing full-length human DSG3).
Method: Next, RPMI1640 medium (Invitrogen) was added carefully to dilute PEG 1500, and then PEG 1500 was removed by centrifuging and removing the supernatant. The group of fused cells suspended in RPMI1640 containing 10% FBS was seeded into a 96-well culture plate at 100 μL/well. The following day, RPMI1640 containing 10% FBS, 1×HAT media supplement (SIGMA), and 0.5×BM-Condimed H1 Hybridoma cloning supplement (Roche Diagnostics) (hereinafter referred to as HAT medium) was added at 100 μL/well. On the second or third day, half of the culture solution was replaced with HAT medium, and the culture supernatant from the seventh day was used in the screening in which binding activity to the DSG3 molecule was used as an indicator. The screening was performed by flow cytometric analysis which detects binding to CHO cells that show constant expression of full-length human DSG3. Positive clones obtained by this analysis were monocloned by the limiting dilution method. Specifically, DF120, DF122, DF148, DF151, DF153, DF168, DF331, DF364, and DF366 were established as antibodies that specifically bind to DSG3.
Flow cytometry was used to evaluate the binding of the obtained antibodies to CHO cells that show constant expression of full-length human DSG3. The cells were suspended in FACS Buffer (1% FBS/PBS) at 5×10⁵ cells/mL and dispensed into Multiscreen-HV Filter Plates (Millipore), and the supernatant was removed from this cell suspension solution by centrifugation. After adding to the supernatant-free cells an FACS buffer containing anti-DSG3 monoclonal antibodies which have been diluted to a suitable concentration (3 μg/mL) in the FACS buffer, this was left to stand for 30 minutes on ice to let the cells react with the monoclonal antibodies. After removing the supernatant from this reaction solution by centrifugation, the cells were washed once with FACS buffer. Next, by suspending the cells in a FACS buffer containing FITC-labeled anti-mouse IgG antibody as the secondary antibody, the cells were reacted with the secondary antibody for 30 minutes on ice. […]

Row | binding result | Binder
1 | binds | anti-DSG3 monoclonal antibody DF366 (antibody, Mouse IgG1 kappa from hybridoma) heavy: EVQLQQSGPELVKPGASVKISCKASGYTFTDYNMDWVKQSHGESLEWIGYIYPNNGGSGYNQKFKSKATLTVDKSSSTAYMELHSLTSEDSAVYYCARRDSYYGFDMAWFAYWGQGTLVTVSAAKTTPPSVYPLAPGSAAQTNSMVTLGCLVKGYFPEPVTVTWNSGSLSSGVHTFPAVLQSDLYTLSSSVTVPSSTWPSQTVTCNVAHPASSTKVDKKIVPRDCGCKPCICTVPEVSSVFIFPPKPKDVLTITLTPKVTCVVVDISKDDPEVQFSWFVDDVEVHTAQTKPREEQFNSTFRSVSELPIMHQDWLNGKEFKCRVNSAAFPAPIEKTISKTKGRPKAPQVYTIPPPKEQMAKDKVSLTCMITDFFPEDITVEWQWNGQPAENYKNTQPIMDTDGSYFVYSKLNVQKSNWEAGNTFTCSVLHEGLHNHHTEKSLSHSPGK light: DIQMTQSPASLSASVGETVTITCRPSENIYNNLAWYQQKQGKSPQLLVYVATNLAEGVPSRFSGSGSGTRFSLKINSLQPEDFGKYYCQHSYGTPWTFGGGTKLEIKRADAAPTVSIFPPSSEQLTSGGASVVCFLNNFYPKDINVKWKIDGSERQNGVLNSWTDQDSKDSTYSMSSTLTLTKDEYERHNSYTCEATHKTSTSPIVKSFNRNEC
2 | binds | anti-DSG3 monoclonal antibody DF364 (antibody, Mouse IgG1 kappa from hybridoma) heavy: EVQLQQSGTVLARPGASVKMSCKASGYTFASYWIHWVKQRPGQGLEWIGSIYPGNSDTTYNQKFKGKAKLTVVTSASSAYMELSSLTNEDSAVYYCTEPTYYSYDDYYAMDYWGQGTSVTVSSAKTTPPSVYPLAPGSAAQTNSMVTLGCLVKGYFPEPVTVTWNSGSLSSGVHTFPAVLQSDLYTLSSSVTVPSSTWPSQTVTCNVAHPASSTKVDKKIVPRDCGCKPCICTVPEVSSVFIFPPKPKDVLTITLTPKVTCVVVDISKDDPEVQFSWFVDDVEVHTAQTKPREEQFNSTFRSVSELPIMHQDWLNGKEFKCRVNSAAFPAPIEKTISKTKGRPKAPQVYTIPPPKEQMAKDKVSLTCMITDFFPEDITVEWQWNGQPAENYKNTQPIMDTDGSYFVYSKLNVQKSNWEAGNTFTCSVLHEGLHNHHTEKSLSHSPGK light: EIVLTQSPALMAASPGEKVTITCSVSSSISSSNLHWYQQKSGTSPKPWIYGTSNLASGVPVRFSGSGSGTSYSLTISTMEAEDAATYYCQQWSSYPLTFGAGTKLELKRADAAPTVSIFPPSSEQLTSGGASVVCFLNNFYPKDINVKWKIDGSERQNGVLNSWTDQDSKDSTYSMSSTLTLTKDEYERHNSYTCEATHKTSTSPIVKSFNRNEC
3 | binds | anti-DSG3 monoclonal antibody DF151 (antibody, Mouse IgG2b kappa from hybridoma) heavy: EVQLQQSGPELVKPGASVKISCKASGYSFTAYYMHWVKQSPEKCLEWIGQINPSTGGTTYNQKFKAKATLTVDKSSSTAYMQLKSLTSEDSAVYYCARWGDSWGQGTTLTVSSAKTTPPSVYPLAPGCGDTTGSSVTLGCLVKGYFPESVTVTWNSGSLSSSVHTFPALLQSGLYTMSSSVTVPSSTWPSQTVTCSVAHPASSTTVDKKLEPSGPISTINPCPPCKECHKCPAPNLEGGPSVFIFPPNIKDVLMISLTPKVTCVVVDVSEDDPDVQISWFVNNVEVHTAQTQTHREDYNSTIRVVSALPIQHQDWMSGKEFKCKVNNKDLPSPIERTISKIKGLVRAPQVYILPPPAEQLSRKDVSLTCLVVGFNPGDISVEWTSNGHTEENYKDTAPVLDSDGSYFIYSKLDIKTSKWEKTDSFSCNVRHEGLKNYYLKKTISRSPGK light: not shown

The binders below were run against T1, full-length human DSG3 (Desmoglein 3) … (assay: flow cytometry).

Row | Binder | binding result
4 | mouse IgG2a chimeric DF366 antibody (antibody, made in CHO DG44 cells; also called DF366m) heavy: EVQLQQSGPELVKPGASVKISCKASGYTFTDYNMDWVKQSHGESLEWIGYIYPNNGGSGYNQKFKSKATLTVDKSSSTAYMELHSLTSEDSAVYYCARRDSYYGFDMAWFAYWGQGTLVTVSAAKTTAPSVYPLAPVCGDTTGSSVTLGCLVKGYFPEPVTLTWNSGSLSSGVHTFPAVLQSDLYTLSSSVTVTSSTWPSQSITCNVAHPASSTKVDKKIEPRGPTIKPCPPCKCPAPNLLGGPSVFIFPPKIKDVLMISLSPIVTCVVVDVSEDDPDVQISWFVNNVEVHTAQTQTHREDYNSTLRVVSALPIQHQDWMSGKEFKCKVNNKDLPAPIERTISKPKGSVRAPQVYVLPPPEEEMTKKQVTLTCMVTDFMPEDIYVEWTNNGKTELNYKNTEPVLDSDGSYFMYSKLRVEKKNWVERNSYSCSVVHEGLHNHHTTKSFSRTPGK light: DIQMTQSPASLSASVGETVTITCRPSENIYNNLAWYQQKQGKSPQLLVYVATNLAEGVPSRFSGSGSGTRFSLKINSLQPEDFGKYYCQHSYGTPWTFGGGTKLEIKRADAAPTVSIFPPSSEQLTSGGASVVCFLNNFYPKDINVKWKIDGSERQNGVLNSWTDQDSKDSTYSMSSTLTLTKDEYERHNSYTCEATHKTSTSPIVKSFNRNEC | binds
5 | DF364 mouse-human chimeric antibody (antibody, made in CHO DG44 cells; also called DF364c) heavy: not shown light: EIVLTQSPALMAASPGEKVTITCSVSSSISSSNLHWYQQKSGTSPKPWIYGTSNLASGVPVRFSGSGSGTSYSLTISTMEAEDAATYYCQQWSSYPLTFGAGTKLELKRTVAAPSVFIFPPSDEQLKSGTASVVCLLNNFYPREAKVQWKVDNALQSGNSQESVTEQDSKDSTYSLSSTLTLSKADYEKHKVYACEVTHQGLSSPVTKSFNRGEC | binds
6 | low-fucose DF364 mouse-human chimeric antibody (antibody, human IgG1, kappa, low-fucose sugar chain (produced in YB2/0 cells), differs only in glycosylation (low fucose); also called YB-DF364c) heavy: not shown light: EIVLTQSPALMAASPGEKVTITCSVSSSISSSNLHWYQQKSGTSPKPWIYGTSNLASGVPVRFSGSGSGTSYSLTISTMEAEDAATYYCQQWSSYPLTFGAGTKLELKRTVAAPSVFIFPPSDEQLKSGTASVVCLLNNFYPREAKVQWKVDNALQSGNSQESVTEQDSKDSTYSLSSTLTLSKADYEKHKVYACEVTHQGLSSPVTKSFNRGEC | binds

Next, values leading:

Row | binding result | Binder
7 | binds | DF366 mouse-human chimeric antibody (antibody, made in CHO DG44 cells; also called DF366c) heavy: not shown light: DIQMTQSPASLSASVGETVTITCRPSENIYNNLAWYQQKQGKSPQLLVYVATNLAEGVPSRFSGSGSGTRFSLKINSLQPEDFGKYYCQHSYGTPWTFGGGTKLEIKRTVAAPSVFIFPPSDEQLKSGTASVVCLLNNFYPREAKVQWKVDNALQSGNSQESVTEQDSKDSTYSLSSTLTLSKADYEKHKVYACEVTHQGLSSPVTKSFNRGEC
8 | binds | low-fucose DF366 mouse-human chimeric antibody (antibody, human IgG1, kappa, low-fucose sugar chain (produced in YB2/0 cells), differs only in glycosylation (low fucose); also called YB-DF366c) heavy: not shown light: DIQMTQSPASLSASVGETVTITCRPSENIYNNLAWYQQKQGKSPQLLVYVATNLAEGVPSRFSGSGSGTRFSLKINSLQPEDFGKYYCQHSYGTPWTFGGGTKLEIKRTVAAPSVFIFPPSDEQLKSGTASVVCLLNNFYPREAKVQWKVDNALQSGNSQESVTEQDSKDSTYSLSSTLTLSKADYEKHKVYACEVTHQGLSSPVTKSFNRGEC
9 | binds | DF151 mouse-human chimeric antibody (antibody, made in CHO DG44 cells; also called DF151c) heavy: not shown light: DIVLTQSPASLAVSLGQSVTISCRASESVEYYGTSLMQWYQQKPGQPPKLLIYGASDVESGVPARFSGSGSGTDFSLNIHPVEEDDIAMYFCQQSRKVPYTFGSGTKLEIKRTVAAPSVFIFPPSDEQLKSGTASVVCLLNNFYPREAKVQWKVDNALQSGNSQESVTEQDSKDSTYSLSSTLTLSKADYEKHKVYACEVTHQGLSSPVTKSFNRGEC
10 | binds | low-fucose DF151 mouse-human chimeric antibody (antibody, human IgG1, kappa, low-fucose sugar chain (produced in YB2/0 cells), differs only in glycosylation (low fucose); also called YB-DF151c) heavy: not shown light: DIVLTQSPASLAVSLGQSVTISCRASESVEYYGTSLMQWYQQKPGQPPKLLIYGASDVESGVPARFSGSGSGTDFSLNIHPVEEDDIAMYFCQQSRKVPYTFGSGTKLEIKRTVAAPSVFIFPPSDEQLKSGTASVVCLLNNFYPREAKVQWKVDNALQSGNSQESVTEQDSKDSTYSLSSTLTLSKADYEKHKVYACEVTHQGLSSPVTKSFNRGEC
